Results as given in US20090203035A1 (University of California, published 2009).

B1: mOrange2 (other)
chain: MVSKGEENNMAIIKEFMRFKVRMEGSVNGHEFEIEGEGEGRPYEGFQTAKLKVTKGGPLPFAWDILSPHFTYGSKAYVKHPADIPDYFKLSFPEGFKWERVMNYEDGGVVTVTQDSSLQDGEFIYKVKLRGTNFPSDGPVMQKKTMGWEASSERMYPEDGALKGKIKMRLKLKDGGHYTSEVKTTYKAKKPVQLPGAYIVDIKLDITSHNEDYTIVEQYERAEGRHSTGGMDELYK
notes: Engineered monomeric orange fluorescent protein derived from mOrange (DsRed lineage); also called mOrange Q64H/F99Y/E160K/G196D; not shown: N-terminal 6xHis tag and linker encoded by the pBAD expression vector
B2: TagRFP-T (other)
chain: MVSKGEELIKENMHMKLYMEGTVNNHHFKCTSEGEGKPYEGTQTMRIKVVEGGPLPFAFDILATSFMYGSRTFINHTQGIPDFFKQSFPEGFTWERVTTYEDGGVLTATQDTSLQDGCLIYNVKIRGVNFPSNGPVMQKKTLGWEANTEMLYPADGGLEGRTDMALKLVGGGHLICNFKTTYRSKKPAKNLKMPGVYYVDHRLERIKEADKETYVEQHEVAVARYCDLPSKLGHKLNGMDELYK
notes: Engineered fluorescent protein, the S158T variant of TagRFP (eqFP578 lineage); also called TagRFP S158T; not shown: N-terminal 6xHis tag and linker encoded by the pBAD expression vector

Target: the molecule itself
Assay: gel filtration (self-association / dimerization check)

Row | Protein | binding result
1 | B1 | no binding
2 | B2 | no binding
